Test results taken from doi:10.1101/869214.

Biological target: calf collagen type I (calf) (UniProt P02453)
Assay: ELISA

UniProt P02453, sequence (P02453 162-1217, chain 1 of 2): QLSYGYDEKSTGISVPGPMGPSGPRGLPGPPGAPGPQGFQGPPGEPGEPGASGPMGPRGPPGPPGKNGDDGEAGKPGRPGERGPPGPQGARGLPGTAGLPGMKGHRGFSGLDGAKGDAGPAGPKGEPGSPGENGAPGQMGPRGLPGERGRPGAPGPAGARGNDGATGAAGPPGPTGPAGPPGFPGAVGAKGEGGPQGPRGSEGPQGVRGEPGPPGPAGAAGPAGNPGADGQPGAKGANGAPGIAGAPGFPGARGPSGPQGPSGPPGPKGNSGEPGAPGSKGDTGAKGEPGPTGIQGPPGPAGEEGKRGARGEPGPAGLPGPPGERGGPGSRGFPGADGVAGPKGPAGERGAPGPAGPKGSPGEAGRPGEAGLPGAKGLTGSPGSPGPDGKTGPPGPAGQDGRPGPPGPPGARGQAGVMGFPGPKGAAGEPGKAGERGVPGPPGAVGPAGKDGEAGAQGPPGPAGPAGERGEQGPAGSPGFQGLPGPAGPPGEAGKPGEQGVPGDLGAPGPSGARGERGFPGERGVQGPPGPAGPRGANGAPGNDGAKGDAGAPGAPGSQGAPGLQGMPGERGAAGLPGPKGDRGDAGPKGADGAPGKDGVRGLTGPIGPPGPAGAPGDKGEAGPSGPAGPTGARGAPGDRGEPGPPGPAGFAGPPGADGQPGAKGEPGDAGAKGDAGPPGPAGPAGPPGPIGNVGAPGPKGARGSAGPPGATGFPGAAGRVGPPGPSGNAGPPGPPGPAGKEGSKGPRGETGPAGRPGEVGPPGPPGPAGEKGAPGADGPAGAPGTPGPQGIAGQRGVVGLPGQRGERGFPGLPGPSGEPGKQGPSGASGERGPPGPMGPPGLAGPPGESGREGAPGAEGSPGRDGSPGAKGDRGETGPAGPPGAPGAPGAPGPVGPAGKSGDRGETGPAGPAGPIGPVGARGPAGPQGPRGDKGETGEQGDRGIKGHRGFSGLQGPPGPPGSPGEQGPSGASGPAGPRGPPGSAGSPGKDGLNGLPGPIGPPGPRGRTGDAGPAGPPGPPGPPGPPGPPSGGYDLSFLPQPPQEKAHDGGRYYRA
UniProt P02453, sequence (P02465 80-1117, chain 2 of 2, further chain): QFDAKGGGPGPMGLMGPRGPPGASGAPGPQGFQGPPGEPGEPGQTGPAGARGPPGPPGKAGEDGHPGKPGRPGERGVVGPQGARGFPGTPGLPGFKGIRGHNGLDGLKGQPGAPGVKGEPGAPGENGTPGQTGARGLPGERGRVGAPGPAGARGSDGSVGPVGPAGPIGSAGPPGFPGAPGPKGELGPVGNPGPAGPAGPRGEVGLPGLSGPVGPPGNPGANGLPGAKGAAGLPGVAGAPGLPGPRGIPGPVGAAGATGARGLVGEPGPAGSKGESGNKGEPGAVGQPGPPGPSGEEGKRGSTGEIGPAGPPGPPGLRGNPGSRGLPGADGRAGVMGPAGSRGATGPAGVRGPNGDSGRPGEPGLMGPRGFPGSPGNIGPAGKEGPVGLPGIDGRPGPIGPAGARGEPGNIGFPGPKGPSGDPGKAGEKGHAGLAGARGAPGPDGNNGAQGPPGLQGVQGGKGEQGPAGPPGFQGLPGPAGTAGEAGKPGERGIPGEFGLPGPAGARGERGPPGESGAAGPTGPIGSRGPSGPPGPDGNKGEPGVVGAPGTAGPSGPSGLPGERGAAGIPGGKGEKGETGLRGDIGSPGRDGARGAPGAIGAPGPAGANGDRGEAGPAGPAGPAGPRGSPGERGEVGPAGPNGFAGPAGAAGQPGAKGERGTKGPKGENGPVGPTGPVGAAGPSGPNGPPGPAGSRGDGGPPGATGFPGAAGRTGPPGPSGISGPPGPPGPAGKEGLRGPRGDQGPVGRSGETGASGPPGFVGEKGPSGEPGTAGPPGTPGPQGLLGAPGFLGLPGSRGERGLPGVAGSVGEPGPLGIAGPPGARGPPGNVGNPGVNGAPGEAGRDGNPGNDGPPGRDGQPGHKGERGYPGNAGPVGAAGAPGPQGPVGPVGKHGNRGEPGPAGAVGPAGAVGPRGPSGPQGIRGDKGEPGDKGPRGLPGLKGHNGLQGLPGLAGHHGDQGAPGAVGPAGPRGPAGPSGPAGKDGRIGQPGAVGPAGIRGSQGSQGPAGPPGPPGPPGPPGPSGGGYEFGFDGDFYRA

Q: How did the percent binding at pH 4 turn out when “Yersinia enterocolitica adhesin YadA head domains with a C-terminal His6-tag (domain or fragment)” was run?
A: 50%
